Data on 16 sequences can be found in the Immune Epitope Database (IEDB).

The Kd is the concentration at which binding is half-saturated. Broadly, the IC50 is the concentration that inhibits the measured activity by half.

The target in experiment [1] is HLA-A*31:01. As to the kind of experiment: IEDB peptide-MHC binding, purified MHC/competitive/fluorescence; filed as Kd, often an IC50 or EC50 that approximates it; ≥ and ≤ were set here for values at or beyond the usual limits of such assays.
The target of experiment [2] is HLA-A*03:01. The description is as above. To be noted: source organism: Escherichia coli 536.
For experiment [3], the target named is HLA-A*03:01. The experiment can be described thus: IEDB peptide-MHC binding, purified MHC/direct/fluorescence; filed as Kd, often an IC50 or EC50 that approximates it; ≥ and ≤ were set here for values at or beyond the usual limits of such assays.
Experiment [4] deals with HLA-A*11:01. The description is as above.
Experiment [5] deals with HLA-A*02:01. As to the kind of experiment: IEDB peptide-MHC binding, purified MHC/competitive/fluorescence; filed as Kd, often an IC50 or EC50 that approximates it; ≥ and ≤ were set here for values at or beyond the usual limits of such assays. To be noted: source organism: Coxiella burnetii RSA 493.
For experiment [6], the target named is HLA-A*02:16. The experiment is described as above. To be noted: source organism: Coxiella burnetii RSA 493.
The next experiment concerns the target HLA-A*24:02. The experiment can be described thus: IEDB peptide-MHC binding, purified MHC/competitive/fluorescence; ≥ and ≤ were set here for values at or beyond the usual limits of such assays. The note with it: source organism: Vaccinia virus Copenhagen.
Another experiment addresses HLA-B*07:02. The description is as above.
The target of experiment [7] is HLA-B*15:01. Described as above. To be noted: source organism: Vaccinia virus Copenhagen.
A further experiment addresses HLA-A*23:01. As to the kind of experiment: IEDB peptide-MHC binding, purified MHC/competitive/fluorescence; filed as Kd, often an IC50 or EC50 that approximates it; ≥ and ≤ were set here for values at or beyond the usual limits of such assays.
Experiment [8] concerns the target HLA-A*11:01. The experiment is described as above.
For experiment [9], the target named is HLA-A*03:01. As to the kind of experiment: IEDB peptide-MHC binding, purified MHC/competitive/fluorescence; ≥ and ≤ were set here for values at or beyond the usual limits of such assays. The note with it: source organism: Zaire ebolavirus.
For experiment [10], the target named is HLA-A*11:01. Described as above. To be noted: source organism: Zaire ebolavirus.
In a further experiment the target is HLA-A*69:01. As to the kind of experiment: IEDB peptide-MHC binding, purified MHC/competitive/fluorescence; filed as Kd, often an IC50 or EC50 that approximates it; ≥ and ≤ were set here for values at or beyond the usual limits of such assays. To be noted: source organism: Vaccinia virus Copenhagen.
Experiment [11] addresses HLA-B*15:01. Described as above. To be noted: source organism: Vaccinia virus Copenhagen.
The target of experiment [12] is HLA-B*57:01. Described as above. To be noted: source organism: Vaccinia virus Copenhagen.
Experiment [13] addresses HLA-A*02:01. The experiment can be described thus: IEDB peptide-MHC binding, purified MHC/direct/fluorescence; filed as Kd, often an IC50 or EC50 that approximates it; ≥ and ≤ were set here for values at or beyond the usual limits of such assays.
The target in experiment [14] is HLA-A*31:01. The experiment is described as above. The note with it: source organism: Camelpox virus M-96.
A further experiment addresses HLA-B*27:05. Described as above. The note with it: source organism: Camelpox virus M-96.
A further experiment has as its target HLA-A*01:01. The experiment is described as above. The note with it: source organism: Camelpox virus M-96.
The next experiment concerns the target HLA-B*58:01. The experiment is described as above. To be noted: source organism: Camelpox virus M-96.
The target in another experiment is HLA-B*08:02. The experiment is described as above. To be noted: source organism: Variola virus.
The target of another experiment is HLA-B*40:01. The experiment is described as above. To be noted: source organism: Camelpox virus M-96.
In a further experiment the target is HLA-B*15:17. The description is as above. To be noted: source organism: Camelpox virus M-96.
The target in a further experiment is HLA-B*48:01. The description is as above. To be noted: source organism: Camelpox virus M-96.
The target of the next experiment is HLA-B*46:01. The description is as above.
In a further experiment the target is HLA-A*26:01. The description is as above. To be noted: source organism: Brucella suis 1330.
Experiment [15] has as its target HLA-B*15:01. Described as above. The note with it: source organism: Brucella suis 1330.
The target in the next experiment is HLA-A*02:12. The description is as above. The note with it: source organism: Brucella suis 1330.
Experiment [16] concerns the target HLA-A*02:16. Described as above. The note with it: source organism: Brucella suis 1330.
For the next experiment, the target named is HLA-A*02:19. The experiment is described as above. The note with it: source organism: Brucella suis 1330.
Experiment [17] has as its target HLA-B*57:01. Described as above. To be noted: source organism: Brucella suis 1330.
The target of another experiment is HLA-B*18:01. The experiment is described as above. To be noted: source organism: Brucella suis 1330.
For a further experiment, the target named is HLA-B*51:01. The description is as above. To be noted: source organism: Brucella suis 1330.
Setting [18] is: source organism: Escherichia coli 536.
The mark [19] stands for this setting: source organism: Giardia lamblia ATCC 50803.
The mark [20] stands for this setting: source organism: Mycobacterium tuberculosis.
Setting [21] is: source organism: Vaccinia virus Copenhagen.
Setting [22] is: source organism: Camelpox virus M-96.
[23] abbreviates: source organism: Brucella suis 1330.
Where [24] appears, read: source organism: Influenza A virus (A/Goose/Hong Kong/385.3/2000(H5N1)).

As to GMSSRAIAR, the equilibrium dissociation constant (Kd) in the experiment with HLA-A*31:01 [1] (setting [18]) turned out to be 8.5 nM; with HLA-A*03:01 [2], 15 nM.

On to TVKRYLQAK, for which the Kd worked out at 55.7 nM in the experiment with HLA-A*31:01 [1] (setting [18]) and 2840 nM with HLA-A*03:01 [2].

With RVHSFFIQY, the equilibrium dissociation constant (Kd) with HLA-A*31:01 [1] (setting [19]) is 161 nM; with HLA-A*03:01 [3] (setting [19]), 68.1 nM; with HLA-A*11:01 [4] (setting [19]), at most 1 nM.

Regarding RLNFFTPTK, the Kd in the experiment with HLA-A*31:01 [1] (source organism: Mycobacterium tuberculosis variant bovis BCG str. Pasteur 1173P2) was 2.3 nM; with HLA-A*03:01 [3] (setting [20]) it was 5.9 nM; in the experiment with HLA-A*11:01 [4] (setting [20]), 3.1 nM.

On to FLFLYWPHY, for which the dissociation constant Kd with HLA-A*02:01 [5] was found to be 628 nM; with HLA-A*02:16 [6], 1740 nM.

For RIPNSLHSL, the IC50 in the experiment with HLA-A*24:02 is 656 nM; with HLA-B*07:02 (setting [21]), 37200 nM; with HLA-B*15:01 [7], 22700 nM.

In the experiment with HLA-A*23:01 (source organism: Escherichia coli F11), TFYAEFPKK had a Kd of 66.2 nM.

For the sequence DVNGIRKPK, the Kd in the experiment with HLA-A*31:01 [1] (source organism: Orthohantavirus dobravaense), in the experiment with HLA-A*03:01 [3] (source organism: Amur virus) and with HLA-A*11:01 [4] (source organism: Amur virus) was at least 20000 nM throughout.

SSSPQPKKK registered a Kd in the experiment with HLA-A*11:01 [8] (source organism: Homo sapiens) of 554 nM.

GIRGFPRCR: the IC50 in the experiment with HLA-B*07:02 (source organism: Zaire ebolavirus) is at least 451000 nM; in the experiment with HLA-A*03:01 [9], 1060 nM; with HLA-A*11:01 [10], 42100 nM.

For KTYFEKVERLK, the Kd with HLA-A*11:01 [8] (source organism: Influenza A virus (A/swine/Scotland/410440/94(H1N2))) worked out at 28.7 nM.

In the case of FTENGPWMY, the Kd with HLA-A*69:01, with HLA-B*15:01 [11], with HLA-B*57:01 [12], with HLA-A*11:01 [8] (setting [21]), with HLA-A*02:01 [13] (setting [22]) and with HLA-A*31:01 [14] was at least 20000 nM in each case. The Kd with HLA-B*27:05 was at least 20000 nM; with HLA-A*03:01 [3] (setting [22]), at least 20000 nM; with HLA-A*01:01, 2.7 nM; with HLA-B*58:01, at least 20000 nM; in the experiment with HLA-B*08:02 it was at least 20000 nM; with HLA-B*40:01 it was at least 20000 nM. In addition, the Kd with HLA-B*15:17 was 5.2 nM; with HLA-B*48:01, at least 20000 nM; in the experiment with HLA-B*46:01 (setting [22]), at least 20000 nM.

For the sequence MRIGSMATL, the Kd with HLA-A*02:01 [13] (setting [23]), in the experiment with HLA-A*26:01, with HLA-A*03:01 [3] (setting [23]), with HLA-B*15:01 [15], with HLA-A*02:12 and in the experiment with HLA-A*02:16 [16] was at least 20000 nM throughout. Moreover, the Kd with HLA-A*02:19, with HLA-B*57:01 [17], with HLA-B*18:01, with HLA-B*51:01 and with HLA-B*46:01 (setting [23]) was at least 20000 nM each time.

In the case of SSFQDILLR, the Kd was 309 nM with HLA-A*31:01 [1] (source organism: Influenza A virus (A/X-31(H3N2))) and at least 20000 nM with HLA-A*03:01 [3] (source organism: Influenza A virus (A/Memphis/14/1998(H3N2))).

On to IIAARNIVR, for which the equilibrium dissociation constant (Kd) is 3.62 nM with HLA-A*31:01 [1] (source organism: Influenza A virus H3N2), 1540 nM with HLA-A*03:01 [3] (setting [24]) and at least 20000 nM with HLA-A*11:01 [4] (setting [24]).

In the case of WYMRALYQK, the Kd in the experiment with HLA-A*23:01 (source organism: Entamoeba histolytica HM-1:IMSS) was found to be 388 nM.
